Results on six molecules are retold here after patent US20100285022A1 (TRELLIS RSV, published 2010).

Test [1] has as its target T1, RSV G protein of strain A (Ga protein) (respiratory syncytial virus, strain A …, UniProt P03423 66-298).
T1 construct: also called RSV-Ga; RSV-GA2 protein
T1 sequence (looked up): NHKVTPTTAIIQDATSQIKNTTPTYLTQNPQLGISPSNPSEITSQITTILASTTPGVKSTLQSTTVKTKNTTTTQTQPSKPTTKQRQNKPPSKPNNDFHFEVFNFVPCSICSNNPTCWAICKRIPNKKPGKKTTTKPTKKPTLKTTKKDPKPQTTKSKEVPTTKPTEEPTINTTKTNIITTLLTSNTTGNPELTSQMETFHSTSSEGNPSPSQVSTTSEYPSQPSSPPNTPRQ
Nature of the test: Biacore, antibody on chip, recombinant Ga in flow. (In general: Surface plasmon resonance follows binding to a sensor surface in real time, without labels.)

For test [2], the target named is T2, RSV G protein of strain B (Gb protein) (respiratory syncytial virus, strain B).
T2 construct: also called RSV-Gb; G protein from strain B
Description: Biacore, antibody on chip, recombinant Gb in flow.

Test [3] addresses T1, RSV G protein of strain A (Ga protein). Description: Biacore, ratio of on-rate to off-rate; Biacore, not the ELISA midpoint (4 nM).
Test [4] addresses T3, Ga derived 12-mer peptide SKPNNDFHFEVF (SEQ ID NO:8) (respiratory syncytial virus, strain A …).
T3 construct: Peptide on an array of overlapping 12-mers
T3 peptide: SKPNNDFHFEVF
Description: peptide array of overlapping 12-mer Ga peptides probed with 131-2G at 1 ug/ml, chemiluminescence.

Test [5] concerns the target T4, G protein on live RSV virus coated on the plate (strain not stated) (respiratory syncytial virus).
T4 construct: whole, on cells; also called live virus; virus particles
Nature of the test: ELISA on live RSV virus coated on the plate, anti-human Fc-HRP detection. On the technique in general: An ELISA detects its analyte on a solid surface through an enzyme-linked reagent.

B1: human monoclonal antibody 1D4 (antibody, V domains shown)
VH: QVQLLQSGAELKKPGASVKVSCQASIDTFSTYYIHWVRQAPGQGLEWLGVINPSGGSTTYAQKFQDRITLTTDTSTRTVYMDLSSLRSEDTAVYYCARVHKGRAEQWQLLHGHFDLWGRGSLVTVSS
VL: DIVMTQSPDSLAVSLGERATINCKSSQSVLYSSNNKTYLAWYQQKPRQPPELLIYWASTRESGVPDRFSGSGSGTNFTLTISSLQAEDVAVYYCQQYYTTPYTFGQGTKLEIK
In general, Kd refers to the concentration at which binding is half-saturated. Turning to B1, the Kd in test [1] came out at 0.23 nM; in test [2], 0.052 nM.

B2: murine monoclonal antibody 131-2G (antibody, V domains shown)
VH: EVQLQQSGPELVKPGTSVKISCKASGYSFTGFTMNWVKQSHGKNLEWFGLINPFNGNTGYNQKFKGKATLTVDKSSSTAFMELLSLTSEDSAVYYCARSGKSYDYEAWFTYWGQGTLVTVSA
VL: DIVMTQTTLSLPVSLGNQASISCRSSQTIVHTNGNTYLEWYLQKPGQSPKLLIYKVSNRFSGVPDRFSGSGSGTDFILNISRVEAEDLGVYYCFQGSHVPFTFGSGTKLEIKR
notes: also called mAb 1312G
As for B2, the Kd in test [3] is 7 nM. Moreover, the binding result in test [4] is reported as “binds”.

B3: human monoclonal antibody 5D8 (antibody, V domains shown)
VH: QAQLVESGGGVVQPGRSLRLSCAASGFTFSYSGMHWVRQAPGRGLEWLAVISYDGNKMYYADSVKGRFTISRDNSKMTLYLQMNSLRREDTAVYYCAKDGLDYGGDLVYYGMDVWGNGTTVTVSS
VL: SYELTQPPSVSVSPGQTGRITCTGSEASGDALASRYAYWYQHKSGQAPVVLIYKDTERPSGISERFSGSSSGTTVTLIISGVLAEDEADYYCKTSVRNGTSWVFGTGTMLTVL
Consider B3, for which the Kd in test [1] came out at 4.39 nM.

B4: human monoclonal antibody 3D3 (antibody, V domains shown)
VH: EEQLVESGGGLVQPGRSLRLSCVGSGLRFEEHAMHWVRQAPGRGLEWVSGISWNSGSVGYADSVKGRFTTSRDNAKDILFLEMNTLRSEDTALYFCAIMVATTKNDFHYYKDVWGKGTTVTVSS
VL: QIVLTQSPATLSLSPGERATLSCKASQSVSNHLAWYQQKPGQAPRLLIYETSNRATGIPPRFSGSGSGTDFTLTISSLEPEDFAVYYCQQRNNWYTFGQGTKLEIK
One may read the EC50 (read off the curve) as the concentration needed to bring the measured effect to its halfway point. A higher EC50 (read off the curve) goes with weaker potency. On to B4, for which the Kd in test [1] amounted to 0.0011 nM. The “EC50 (read off the curve)” value in test [5] was approximately 0.1 µg/mL.

B5: human monoclonal antibody 1G8 (antibody, V domains shown)
VH: QLQLQESGPGLVKPSETLSLTCTVSGDSITSGQYYWAWIRQAPGKGLEWIGSIHYSGSTYQNPSLKSRLTISVDTSRDQISMKLSSVTVAESAVYYCAKQQLSLSPVENWFDPWGQGTLVTVSS
VL: EIVVTQSPVTLSVSPGESAALSCRASRSVGSRLAWYQQKPGQPPRLLIFAASTRATGIPARFSGSGSGTDFTLIISGLQSEDYAVYYCQQYKEWPLFTFGPGTTVDSK
For the molecule B5, the Kd in test [1] stood at 0.024 nM. Besides, the “EC50 (read off the curve)” value in test [5] is approximately 0.3 µg/mL.

B6: human monoclonal antibody 3G12 (antibody, V domains shown)
VH: QLQLQESGPGLVKPSETLSLTCTVSGGSISSSNYYWGWIRQPPGKGLEWIASIHDSGSIYYNPSLRSRVTISVDTSKNQFSLKLSSVTAADTAVYYCARHLVWFGELRNNWFDPWGQGTLVTVAS
VL: EIVMTQSPATLSVSPGERATLSCRASQSVNSNLAWYQHKPGQAPRLLIYGASTRATGIPARFSGSGSGTDFTLTISSLQSEDFAVYYCQQYNNWPLFGPGTKVDLK
On to B6, for which the Kd in test [1] was 0.579 nM.
